Results published in article PMC10068764.

Molecular target: CA tri-hexamer_(center) (HIV-1)
Test: ITC

Substance: NUP153^1411–1475/1425–1464△ peptide (25 aa) (from UniProt P49790 1411-1475)
- Kd: 870 nM
